Experimental data: article PMC7786333, “Integration of diverse DNA substrates by a casposase can be targeted to R-loops in vitro by its fusion to Cas9”

Biological target: Cas9 (Streptococcus pyogenes, UniProt Q99ZW2 1-1368)
Assay: R-loop formation gel assay (deproteinised); sgran50; 5 mM EDTA; efficiency similar to fusions; 25 mM Tris pH 7.5, 106 mM KCl, 50 ug/ml BSA, 5 mM EDTA, 2 mM DTT, 9% glycerol, 37 C; 150 nM protein, 300 nM sgRNA, 25 nM Cy5-dsran50, 75 nM unlabelled MW12 dsDNA competitor; 8% acrylamide TBE gel
Conditions: protein: recombinant, tags: His6, label: 5'-Cy5 on ssran50 strand (strand 2), blunt 50 bp DNA target plus sgRNA, PAM TGG

Cas9, sequence (Q99ZW2 whole entry, the tested form may be a part): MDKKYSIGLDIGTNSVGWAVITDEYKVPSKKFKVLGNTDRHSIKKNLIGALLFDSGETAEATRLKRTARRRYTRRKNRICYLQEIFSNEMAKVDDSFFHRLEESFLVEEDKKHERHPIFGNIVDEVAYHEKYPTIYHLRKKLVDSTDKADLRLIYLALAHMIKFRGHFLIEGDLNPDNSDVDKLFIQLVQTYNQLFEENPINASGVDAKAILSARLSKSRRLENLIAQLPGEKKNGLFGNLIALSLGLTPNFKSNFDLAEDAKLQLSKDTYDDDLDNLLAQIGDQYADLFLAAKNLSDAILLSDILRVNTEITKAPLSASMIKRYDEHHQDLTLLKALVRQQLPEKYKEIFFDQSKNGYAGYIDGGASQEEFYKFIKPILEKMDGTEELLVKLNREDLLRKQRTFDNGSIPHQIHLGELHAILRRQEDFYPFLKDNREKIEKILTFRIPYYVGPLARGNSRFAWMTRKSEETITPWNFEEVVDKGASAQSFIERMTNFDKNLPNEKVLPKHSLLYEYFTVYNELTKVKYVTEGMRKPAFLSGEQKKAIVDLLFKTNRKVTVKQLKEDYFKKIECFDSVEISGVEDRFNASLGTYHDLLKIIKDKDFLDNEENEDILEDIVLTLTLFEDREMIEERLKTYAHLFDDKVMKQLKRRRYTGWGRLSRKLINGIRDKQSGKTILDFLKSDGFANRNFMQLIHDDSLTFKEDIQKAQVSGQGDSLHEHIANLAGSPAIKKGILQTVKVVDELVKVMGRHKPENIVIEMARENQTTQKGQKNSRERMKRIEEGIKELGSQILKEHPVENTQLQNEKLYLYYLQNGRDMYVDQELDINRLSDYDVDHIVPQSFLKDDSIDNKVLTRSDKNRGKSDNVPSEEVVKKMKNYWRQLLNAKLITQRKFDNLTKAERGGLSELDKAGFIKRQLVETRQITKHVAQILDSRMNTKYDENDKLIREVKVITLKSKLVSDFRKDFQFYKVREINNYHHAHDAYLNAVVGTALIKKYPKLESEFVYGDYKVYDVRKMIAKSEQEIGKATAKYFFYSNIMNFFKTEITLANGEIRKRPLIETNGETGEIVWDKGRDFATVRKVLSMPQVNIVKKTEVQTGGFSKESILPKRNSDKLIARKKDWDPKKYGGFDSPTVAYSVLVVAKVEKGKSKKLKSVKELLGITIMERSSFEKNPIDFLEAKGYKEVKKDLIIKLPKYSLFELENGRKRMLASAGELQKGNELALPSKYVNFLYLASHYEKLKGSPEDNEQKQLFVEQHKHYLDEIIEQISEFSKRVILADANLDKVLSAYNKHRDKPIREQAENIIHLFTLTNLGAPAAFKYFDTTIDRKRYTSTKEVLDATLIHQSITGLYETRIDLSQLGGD

B1: sgran50 + dsran50 (mixed)
RNA: GGUAGACGAUUACAUUGCUACAGUUUUAGAGCUAGAAAUAGCAAGUUAAAAUAAGGCUAGUCCGUUAUCAACUUGAAAAAGUGGCACCGAGUCGGUGCUU
DNA 1: CAACGTCATAGACGATTACATTGCTACATGGAGCTGTCTAGAGGATCCGA
DNA 2: TCGGATCCTCTAGACAGCTCCATGTAGCAATGTAATCGTCTATGACGTTG
Question: Does B1 bind?
Answer: binds
